# Reference: the RNAGym collection of RNA variant scans (doi:10.1021/acssynbio.7b00057)
# B1: Pistol ribozyme (parent)
# chain: GGGUCGUUGUUCCAUAAUCGCGUGGAUAUGGCACGCAAGUUUCUACCGGGCACCGUAAAUGUCCGACUGGAGCCGUUCGGGCGGCUAUAAACAGACCUCAGGCCCGAAGCGUGGCGGCACCUGCCGCCGGUGGUAAAAAAGAUCGGAAGAGCACACGUCU
# Variants of: B1
# Test: aptazyme ON/OFF ratio, guanine; higher = stronger switching; co-transcriptional cleavage with and without guanine
row,Variant,aptazyme ON/OFF ratio
1,U7G U8A U10C U11C C12A,1.46
2,U7G U8A U10C U11C C12G,1.29
3,U7G U8A U10C U11C C12U,1.31
4,U7G U8A G9U U10G U11A C13A,1.06
5,U7G U8A G9U U10G U11A C13U,1.06
6,U7G U8A G9U U10G U11A C13G,1.06
7,U7G U8A U10G C12A,1.03
8,U7G U8A G9U U10C U11A C13U,1.08
9,U7G U8A G9U U10C U11A C13A,1.1
10,U7G U8A G9U U10C U11A C13G,1.05
11,U7G U8A U10A U11C C12A C13U,1.17
12,U7G U8A U10A U11C C12A C13G,1.25
13,U7G U8A U10A U11C C12A C13A,1.26
14,U7G U8A G9U U10A U11G C12G,1.08
15,U7G U8A G9U U10A U11G C12A,1.06
16,U7G U8A G9U U10A U11G C12U,1.16
17,U7G U8A G9U U10G C12A,1.09
18,U7G U8A G9U U10G C12U,1.13
19,U7G U8A G9U U10G C12G,1.07
20,U7G U8A G9U U11C C13U,1.09
21,U7G U8A G9U U11C C13A,1.1
22,U7G U8A G9U U11C C13G,1.05
23,U7G U8A G9U U10A U11C C12G C13A,1.06
24,U7G U8A G9U U10A U11C C12G C13U,1.05

row,Variant,aptazyme ON/OFF ratio
1,U7G U8A G9U U10A U11C C12G C13G,1.05
2,U7G U8A G9U U10C U11C C12G,1.08
3,U7G U8A G9U U10C U11C C12A,1.09
4,U7G U8A G9U U10C U11C C12U,1.06
5,U7G U8A G9U U10C U11G C12A,1.06
6,U7G U8A G9U U10C U11G C12G,1.1
7,U7G U8A G9U U10C U11G C12U,1.35
8,U7G U8A G9U U10C U11A C12U C13A,1.05
9,U7G U8A G9U U10C U11A C12U C13G,1.09
10,U7G U8A G9U U10C U11A C12U C13U,1.06
11,U7G U8A G9U U10C C12G,1.52
12,U7G U8A G9U U10C C12U,1.32
13,U7G U8A G9U U10C C12A,1.2
14,U7G U8A U10A U11A C12G C13A,1.14
15,U7G U8A U10A U11A C12G C13G,1.2
16,U7G U8A U10A U11A C12G C13U,1.46
17,U7G U8A U10A U11A,2.2
18,U7G U8A U10A U11G,2.46
19,U7G U8A U10A U11C,0.988
20,U7G U8A U10A C12U C13U,1.09
21,U7G U8A U10A C12U C13A,1.24
22,U7G U8A U10A C12U C13G,1.28
23,U7G U8A U10C U11C C12U C13G,1.25
24,U7G U8A U10C U11C C12U C13U,1.13

row,Variant,aptazyme ON/OFF ratio
1,U7G U8A U10C U11C C12U C13A,1.14
2,U7G U8A G9U U10C C12A C13A,1.12
3,U7G U8A G9U U10C C12A C13U,1.15
4,U7G U8A G9U U10C C12A C13G,1.12
5,U7G U8A G9U U10G U11A C12U C13A,1.11
6,U7G U8A G9U U10G U11A C12U C13G,1.03
7,U7G U8A G9U U10G U11A C12U C13U,1.02
8,U7G U8A U10C C12G C13G,1.17
9,U7G U8A U10C C12G C13A,1.39
10,U7G U8A U10C C12G C13U,1.31
11,U7G U8A G9U U10C U11A C12A C13G,1.06
12,U7G U8A G9U U10C U11A C12A C13A,1.14
13,U7G U8A G9U U10C U11A C12A C13U,1.09
14,U7G U8A G9U U10G U11A C12A C13U,1.07
15,U7G U8A G9U U10G U11A C12A C13G,1.07
16,U7G U8A G9U U10G U11A C12A C13A,1.12
17,U7G U8A U10C U11A C12U C13A,1.3
18,U7G U8A U10C U11A C12U C13U,1.34
19,U7G U8A U10C U11A C12U C13G,1.19
20,U7G U8A G9U U10G U11C C12U C13G,1.17
21,U7G U8A G9U U10G U11C C12U C13A,1.07
22,U7G U8A G9U U10G U11C C12U C13U,1.08
23,U7G U8A U10C U11A C13G,1.23
24,U7G U8A U10C U11A C13U,1.44

row,Variant,aptazyme ON/OFF ratio
1,U7G U8A U10C U11A C13A,1.39
2,U7G U8A U10C U11A C12A C13A,1.49
3,U7G U8A U10C U11A C12A C13U,1.39
4,U7G U8A U10C U11A C12A C13G,1.23
5,U7G U8A G9U U10A U11G C13G,1.03
6,U7G U8A G9U U10A U11G C13A,1.09
7,U7G U8A G9U U10A U11G C13U,1.09
8,U7G U8A G9U U11C C12G C13A,1.09
9,U7G U8A G9U U11C C12G C13U,1.08
10,U7G U8A G9U U11C C12G C13G,1.04
11,U7G U8A U10C U11G C12A C13A,1.19
12,U7G U8A U10C U11G C12A C13G,1.19
13,U7G U8A U10C U11G C12A C13U,1.37
14,U7G U8A U10C U11A C12G C13A,1.25
15,U7G U8A U10C U11A C12G C13U,1.38
16,U7G U8A U10C U11A C12G C13G,1.22
17,U7G U8A G9U U10G C12G C13G,1.07
18,U7G U8A G9U U10G C12G C13U,1.12
19,U7G U8A G9U U10G C12G C13A,1.05
20,U7G U8A G9U U10G U11C C12G C13G,1.03
21,U7G U8A G9U U10G U11C C12G C13U,1.21
22,U7G U8A G9U U10G U11C C12G C13A,1.09
23,U7G U8A G9U U11G C12A,1.07
24,U7G U8A G9U U11G C12G,1.12

row,Variant,aptazyme ON/OFF ratio
1,U7G U8A G9U U11G C12U,1.23
2,U7G U8A G9U U10A U11G C12A C13U,1.09
3,U7G U8A G9U U10A U11G C12A C13A,1.09
4,U7G U8A G9U U10A U11G C12A C13G,1.06
5,U7G U8A G9U U10G U11G C12G C13G,1.24
6,U7G U8A G9U U10G U11G C12G C13U,1.05
7,U7G U8A G9U U10G U11G C12G C13A,1.15
8,U7G U8A G9U U10G U11G C12A C13U,1.25
9,U7G U8A G9U U10G U11G C12A C13G,1.09
10,U7G U8A G9U U10G U11G C12A C13A,1.07
11,U7G U8A U10C U11C C12G C13U,1.3
12,U7G U8A U10C U11C C12G C13A,1.32
13,U7G U8A U10C U11C C12G C13G,1.06
14,U7G U8A U10A C13G,1.44
15,U7G U8A U10A C13A,1.2
16,U7G U8A U10A C13U,1.25
17,U7G U8A U10A U11A C12U,1.12
18,U7G U8A U10A U11A C12A,1.08
19,U7G U8A U10A U11A C12G,1.14
20,U7G U8A U10C U11G C12U,1.32
21,U7G U8A U10C U11G C12A,1.27
22,U7G U8A U10C U11G C12G,1.49
23,U7G U8A U10A U11A C12U C13U,1.31
24,U7G U8A U10A U11A C12U C13A,1.22

row,Variant,aptazyme ON/OFF ratio
1,U7G U8A U10A U11A C12U C13G,1.29
2,U7G U8A G9U U11G C13G,1.02
3,U7G U8A G9U U11G C13A,1.07
4,U7G U8A G9U U11G C13U,1.07
5,U7G U8A U10C C12U C13A,1.24
6,U7G U8A U10C C12U C13G,1.26
7,U7G U8A U10C C12U C13U,1.32
8,U7G U8A G9U U10A U11C C12U C13U,1.01
9,U7G U8A G9U U10A U11C C12U C13G,1.07
10,U7G U8A G9U U10A U11C C12U C13A,1.07
11,U7G U8A G9U U11G C12G C13G,1.03
12,U7G U8A G9U U11G C12G C13U,1.06
13,U7G U8A G9U U11G C12G C13A,1.01
14,U7G U8A U10A U11A C12A C13U,1.08
15,U7G U8A U10A U11A C12A C13G,1.18
16,U7G U8A U10A U11A C12A C13A,1.21
17,U7G U8A G9U U10G U11A C12G C13G,1.05
18,U7G U8A G9U U10G U11A C12G C13U,1.12
19,U7G U8A G9U U10G U11A C12G C13A,1.03
20,U7G U8A G9U U10C U11G C12A C13G,1.05
21,U7G U8A G9U U10C U11G C12A C13A,1.08
22,U7G U8A G9U U10C U11G C12A C13U,1.11
23,U7G U8A G9U U11G,1.17
24,U7G U8A G9U U11A,1.39

row,Variant,aptazyme ON/OFF ratio
1,U7G U8A G9U U11C,1.08
2,U7G U8A G9U U10A U11C C13G,1.02
3,U7G U8A G9U U10A U11C C13U,1.02
4,U7G U8A G9U U10A U11C C13A,1.04
5,U7G U8A G9U U11C C12U C13U,1.02
6,U7G U8A G9U U11C C12U C13G,1.15
7,U7G U8A G9U U11C C12U C13A,1.1
8,U7G U8A G9U U10G U11C C12G,1.1
9,U7G U8A G9U U10G U11C C12A,1.14
10,U7G U8A G9U U10G U11C C12U,1.05
11,U7G U8A U10A U11G C12U C13G,1.14
12,U7G U8A U10A U11G C12U C13A,1.38
13,U7G U8A U10A U11G C12U C13U,1.71
14,U7G U8A U10A U11C C12A,1.31
15,U7G U8A U10A U11C C12U,1.05
16,U7G U8A U10A U11C C12G,1.26
17,U7G U8A G9U U10G U11C,1.04
18,U7G U8A G9U U10G U11A,1.05
19,U7G U8A G9U U10G U11G,1.11
20,U7G U8A G9U U10A U11G,1.09
21,U7G U8A G9U U10G C12A C13G,1.03
22,U7G U8A G9U U10G C12A C13A,1.11
23,U7G U8A G9U U10G C12A C13U,1.08
